Ten molecules from patent publication US20240270846A1 (published 2024) can be followed below.

Numbering of substitutions follows the chain as printed. Numbers in names are those of the source. Where no end group is shown, it is not given here.

In experiment [1] the target is T1, biotinylated CD3 epsilon epitope peptide (UniProt P07766 22-48, biotinylated).
T1 chain: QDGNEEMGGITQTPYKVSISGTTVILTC
Description: SPR (Biacore); biotinylated CD3 epsilon epitope peptide on chip via streptavidin, antibody as analyte.

In experiment [2] the target is human CD137 expressed on cells (human, UniProt Q07011 24-255). Description: cell-based or functional assay.
Experiment [3] deals with T2, biotin-labeled cynomolgus monkey CD137 fused to human IgG1 Fc fragment (cynomolgus monkey, UniProt Q07011 24-186 (human entry), limits assumed, biotin-labeled).
T2 construct: the assay used the fusion to human IgG1 Fc; also called cyno CD137-Fc
T2 chain: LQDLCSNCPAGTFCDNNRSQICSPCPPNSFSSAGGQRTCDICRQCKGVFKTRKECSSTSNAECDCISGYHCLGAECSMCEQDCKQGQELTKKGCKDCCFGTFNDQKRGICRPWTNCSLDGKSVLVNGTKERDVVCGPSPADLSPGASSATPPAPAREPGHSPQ
Description: beads ELISA, biotin labeled cyno CD137-Fc. Background: An ELISA detects its analyte on a solid surface through an enzyme-linked reagent.

Experiment [4] concerns the target T3, recombinant human CD137 (human, UniProt Q07011 24-186).
T3 construct: also called hCD137
Description: SPR (Biacore T200, 37 degrees C), antibody captured by anti-human Fc, antigen as analyte, 1:1 model. For orientation: Surface plasmon resonance follows binding to a sensor surface in real time, without labels.

The target of experiment [5] is T4, recombinant human CD3 (human, UniProt P07766 23-126).
T4 construct: also called hCD3
The experiment is described as above.

The target of experiment [6] is T5, biotin-labeled human CD137 fused to human IgG1 Fc fragment (human, biotin-labeled).
T5 construct: also called human CD137-Fc; biotin-human CD137-Fc
Description: ECL, IgG with biotinylated antigen.

In experiment [7] the target is T6, CD3 epsilon peptide antigen (human, also: biotin-labeled as coated antigen, free as competitor, biotin position not given here).
T6 construct: also called biotin-labeled CD3 epsilon peptide; CD3 peptide
T6 peptide: QDGNEEMGGITQTPY
Put plainly: ECL, IgG with biotinylated antigen.

The target in experiment [8] is T6, CD3 epsilon peptide antigen. Description: ELISA, IgG supernatant, biotinylated antigen on streptavidin plate.
Experiment [9] has as its target T7, biotin-labeled human CD137 fused to human IgG1 Fc fragment (human CD137-Fc) (human, biotin-labeled).
T7 construct: also called biotin-human CD137-Fc
Description: bead ELISA on biotin-human CD137-Fc, 250 ng IgG; free CD3 epsilon 62.5 pmol as competitor.

Experiment [10] addresses T7, biotin-labeled human CD137 fused to …. Put plainly: bead ELISA on biotin-human CD137-Fc, 250 ng IgG; free human IgG1 Fc 62.5 pmol as control competitor.
Experiment [11] shares this target. Put plainly: bead ELISA on biotin-human CD137-Fc; decrease of signal with free CD3 epsilon as competitor against free Fc.

B1: CE115HA000 V11L/D72A/L78I/D101Q without insertion, one-arm antibody (antibody, human IgG1, kappa, L234A L235A, N297A, name in Kabat numbering)
heavy: QVQLVESGGGLVQPGRSLRLSCAASGFTFSNAWMHWVRQAPGKGLEWVAQIKAKSNNYATYYAESVKGRFTISRADSKNSIYLQMNSLKTEDTAVYYCRYVHYGAYYGVQAWGQGTTVTVSSASTKGPSVFPLAPSSKSTSGGTAALGCLVKDYFPEPVTVSWNSGALTSGVHTFPAVLQSSGLYSLSSVVTVPSSSLGTQTYICNVNHKPSNTKVDKKVEPKSCDKTHTCPPCPAPEAAGGPSVFLFPPKPKDTLMISRTPEVTCVVVDVSHEDPEVKFNWYVDGVEVHNAKTKPREEQYASTYRVVSVLTVLHQDWLNGKEYKCKVSNKALPAPIEKTISKAKGQPREPQVYTLPPSRCELTKNQVSLSCAVKGFYPSDIAVEWESNGQPENNYKTTPPVLDSDGSFFLVSKLTVDKSRWQQGNVFSCSVMHEALHNHYTQKSLSLSPDYKDDDDK
chain: EPKSSDKTHTCPPCPAPELLGGPSVFLFPPKPKDTLMISRTPEVTCVVVDVSHEDPEVKFNWYVDGVEVHNAKTKPREEQYNSTYRVVSVLTVLHQDWLNGKEYKCKVSNKALPAPIEKTISKAKGQPREPQVCTLPPSRDELTKNQVSLWCLVKGFYPSDIAVEWESNGQPENNYKTTPPVLDSDGSFFLYSKLTVDKSRWQQGNVFSCSVMHEALHNRYTQKSLSLSP
light: DIVMTQSPLSLPVTPGEPASISCRSSQSLVHSNRNTYLHWYQQKPGQAPRLLIYKVSNRFSGVPDRFSGSGSGTDFTLKISRVEAEDVGVYYCGQGTQVPYTFGQGTKLEIKRTVAAPSVFIFPPSDEQLKSGTASVVCLLNNFYPREAKVQWKVDNALQSGNSQESVTEQDSKDSTYSLSSTLTLSKADYEKHKVYACEVTHQGLSSPVTKSFNRGEC
notes: one-arm antibody; also called No insertion
Turning to B1, the Kd – broadly, the equilibrium constant for the complex coming apart – in experiment [1] is 0.00696 µM.

B2: CE115HA000 (unaltered), one-arm antibody with GLS3000 (antibody, human IgG1, kappa, L234A L235A, N297A)
heavy: B1 heavy with L11V, A75D, I81L, Q110D
chain: B1 chain
light: B1 light
On to B2, for which the Kd in experiment [1] stood at 0.11 µM.

B3: GPC3/CD137 × CD3 (other)
VH 1: QVQLQQWGAGLLKPSETLSLTCAVYGGSFSGYYWSWIRQSPEKGLEWIGEINHGGYVTYNPSLESRVTISVDTSKNQFSLKLSSVTAADTAVYYCARDYGPGNYDWYFDLWGRGTLVTVSS
VL 1: EIVLTQSPATLSLSPGERATLSCRASQSVSSYLAWYQQKPGQAPRLLIYDASNRATGIPARFSGSGSGTDFTLTISSLEPEDFAVYYCQQRSNWPPALTFGGGTKVEIK
VH 2: QVQLVESGGGLVQPGRSLRLSCAASGFTFSNAWMHWVRQAPGKGLEWVAQIKDRANSYNTYYAESVKGRFTISRDDSKNSIYLQMNSLKTEDTAVYYCRYVHYTTYAGSSFSYGVDAWGQGTTVTVSS
VL 2: DIVMTQSPLSLPVTPGEPASISCRSSQPLVHSNRNTYLHWYQQKPGQAPRLLIYKVSNRFSGVPDRFSGSGSGTDFTLKISRVEAEDVGVYYCGQGTQVPYTFGQGTKLEIK
VH 3: QVQLVQSGAEVKKPGASVTVSCKASGYTFTDYEMHWIRQPPGEGLEWIGAIDGPTPDTAYSEKFKGRVTLTADKSTSTAYMELSSLTSEDTAVYYCTRFYSYTYWGQGTLVTVSS
VL 3: B3 VL 2
Turning to B3, in [2], the “Luminescence against CD137 positive cells relative to that against GPC3 positive cells, 1 nM” value is ~107% and the “Luminescence against CD137 positive cells relative to that against GPC3 positive cells, 10 nM” value is ~128%.

B4: DADU01_3 #001 (antibody, human IgG1, V domains shown)
VH: QVQLVESGGGLVQPGRSLRLSCAASGFTFSIAWMHWVRQAPGKGLEWVAQIKDRVNAYEAYYAPSVKGRFTISRDDSKNSIYLQMNSLKTEDTAVYYCRYVHYASYYDLLGYGGVDAWGQGTTVTVSS
VL: B3 VL 2 with P28S
notes: VH in human IgG1 CH1-Fc plasmid; GLS3000 light chain; also called dBBDu_126; dBBDu126
B4: the binding result in experiment [3] is reported as “no binding (tested: 25 micro L of 50 ng/micro L purified IgG)”.

B5: GPC3/CD137xCD3 trispecific antibody (other)
VH 1: B3 VH 1
VL 1: B3 VL 1
VH 2: B3 VH 2
VL 2: B3 VL 2
VH 3: B3 VH 3
VL 3: B3 VL 2
notes: Made by Fab-arm exchange of mAb A (CrossMab, each arm carrying Fv A1 and Fv A2) with mAb B (conventional IgG); Fc is Fc gamma R silent (L235R, G236R, S239K) and deglycosylated (N297A); also called GPC3/CD137 × CD3; anti-GPC3/CD137×CD3
Turning to B5, in experiment [4], the Kd stood at 0.0377 µM; the koff (as a rule, the rate constant with which the complex falls apart) is 0.0206 s⁻¹; the kon (in general, a measure of how fast the partners come together) amounted to 547000 M⁻¹ s⁻¹. In addition, in experiment [5], the Kd was 0.0197 µM, the off-rate (koff) was 0.00161 s⁻¹ and the on-rate (kon) stood at 81800 M⁻¹ s⁻¹.

B6: dBBDu_011 (antibody, V domains shown)
VH: QVQLVESGGGLVQPGRSLRLSCAASGFTFSNAWMHWVRQAPGKGLEWVAQIKDKSSLYNTYYAPSVKGRFTISRDDSKNSIYLQMNSLKTEDTAVYYCRYVHYGASYGFLFAGYGVDAWGQGTTVTVSS
VL: B3 VL 2 with P28S
notes: Converted to IgG: VH joined to human IgG1 constant domains; also called clone 011
B6: the binding result in [6] and in [7] was “binds” in each case.

B7: dBBDu_115 (antibody, IgG1, V domains shown)
VH: B6 VH with S55A, S56N, L57S, A105S
VL: B3 VL 2 with P28S
notes: IgG1 format with GLS3000 light chain
Consider B7, for which the binding result in experiment [8] was “binds”.

B8: dBBDu193/L127 (antibody, V domains shown)
VH: QVQLVESGGGLVQPGRSLRLSCAASGFTFSNAWMHWVRQAPGKGLEWVAQIKDRSNQYATYYAPSVKGRFTISRDDSKNSIYLQMNSLKTEDTAVYYCHYVHYSAASTLLPSFGVDAWGQGTTVTVSS
VL: DIVMTQSPLSLPVTPGEPASISCRASEELLHINRHIFLHWYQQKPGQAPRLLIYKVYNRFTGVPDRFSGSGSGTDFTLKISRVEAEDVGVYYCAQGTSVPFTFGQGTKLEIK
notes: also called dBBDu_193 / dBBDu.L127
Regarding B8, the “ELISA signal with Free CD3e 62.5 pmol” value in experiment [9] came out at 2470. In experiment [10], the “ELISA signal with Free Fc 62.5 pmol” value amounted to 6080. The molecule also yielded a Signal decrease in experiment [11] of 59.4%.

B9: dBBDu193/L132 (antibody, V domains shown)
VH: B8 VH
VL: B8 VL with R24Q, A25T, L30V, H35F, Y57S, T61S
notes: also called dBBDu_193 / dBBDu.L132
Take B9: the “ELISA signal with Free CD3e 62.5 pmol” value in experiment [9] is 10400. The “ELISA signal with Free Fc 62.5 pmol” value in experiment [10] was 116000. Moreover, the Signal decrease in experiment [11] worked out at 91%.

B10: dBBDu189/L126 (antibody, V domains shown)
VH: B8 VH with V48I, S104A, A105Q, T108S
VL: B8 VL with A25T, H35Y, Y57Q, T61S, T97S, S98A
Regarding B10, in experiment [9], the “ELISA signal with Free CD3e 62.5 pmol” value stood at 9750. The “ELISA signal with Free Fc 62.5 pmol” value in [10] was found to be 75100. In experiment [11], the Signal decrease came out at 87%.
